According to paper PMC8962522, “Direct interaction of TrkA/CD44v3 is essential for NGF-promoted aggressiveness of breast cancer cells” (Journal of Experimental & Clinical Cancer Research : CR, 2022):

B1: CD44v3 mimetic peptide 3 (peptide)
peptide: RDRHLSFSGSG
notes: zone 3 of CD44 variant exon v3; not glycosylated; numbers count on: exon v3; also called P3; source: synthetic peptide
B2: CD44v3 mimetic peptide 4 (peptide)
peptide: IDDDEDFISST
notes: zone 4, the C-terminal region of CD44 variant exon v3; numbers count on: exon v3 (D34, F38 as printed); also called P4; CD44v3 C-terminal-mimicking peptide; source: synthetic peptide

Target: T1, TrkA-His tagged extracellular domain protein (Ala 34-Gly423) (UniProt P04629 34-423, RED-Tris-NTA dye on the His tag (Monolith His-Tag Labeling Kit))
T1 construct: TrkA (tropomyosin kinase A) extracellular domain, Ala34-Gly423; The TrkA used for nanoDSF is not described; source: bought: R&D Systems (9966-TK-050)
Test: MST; binding check: peptides and TrkA-His labelled with RED-Tris-NTA; PBS-T; high MST power, 100% LED
Details: both partners purified

T1 sequence (P04629 34-423): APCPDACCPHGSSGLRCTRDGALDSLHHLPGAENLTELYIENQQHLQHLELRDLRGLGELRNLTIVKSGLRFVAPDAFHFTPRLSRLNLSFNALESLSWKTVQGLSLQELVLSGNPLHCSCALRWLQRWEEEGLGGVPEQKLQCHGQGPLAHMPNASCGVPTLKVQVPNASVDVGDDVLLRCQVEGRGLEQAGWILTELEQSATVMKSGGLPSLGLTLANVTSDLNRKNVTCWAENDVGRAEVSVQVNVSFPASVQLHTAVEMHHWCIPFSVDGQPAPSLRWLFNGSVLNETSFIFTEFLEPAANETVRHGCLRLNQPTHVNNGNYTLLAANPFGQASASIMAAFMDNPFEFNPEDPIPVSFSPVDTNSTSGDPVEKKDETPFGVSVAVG

Binder	binding result
B1	binds
B2	binds
